Laboratory results taken from US8841421B2, “S100A9 interaction screening method” (Active Biotech, AB, priority 2007, dated 2014).

What was measured:
[1] = target: T1, S100A9 binding to immobilized RAGE (Homo sapiens, UniProt P06702); assay: Biacore competition assay: displacement of S100A9 binding to immobilized RAGE; settings: for IC50, displacement of S100A9 binding to RAGE: 200 nM S100A9, log-logit plot, linear regression
T1 construct: made in house; host or cells: E. coli
T1 sequence (P06702 1-114): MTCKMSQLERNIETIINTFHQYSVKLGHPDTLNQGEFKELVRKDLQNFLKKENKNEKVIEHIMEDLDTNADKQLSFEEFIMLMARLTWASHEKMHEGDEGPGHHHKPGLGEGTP
Experimental: Sensorgrams from top to bottom represent: S100A9 without and with 15.625, 31.25, 62.5, 125, 250, 500 and 1000 μM compound A as competitor and from sample buffer without S100A9 and competitor. In (B), binding data is plotted as an inhibition curve (♦) and the response for S100A9 in the absence of competitor (dotted line). In (C), binding data is plotted after log-logit transformation. […] Arrows in (A) indicate start of the association phase (1), i.e. injection of S100A9±competitor, and dissociation phase (2), where running buffer is pumped over the surface. Injection time, flow rate and regeneration conditions were as in FIG. 1.
Binding analysis was performed using the “surface plasmon resonance” (SPR) technology with a Biacore 3000™ system. This technology allows analysis of an interaction between proteins and small molecules in a real-time and label-free manner. A protein or low-molecular weight compound is injected over a surface (a CM5 sensor chip) with a covalently coupled ligand and the signal produced, expressed as resonance units (RU), is directly proportional to the number and mass of the molecule interacting with the ligand on the surface. Immobilization, regeneration scouting, surface performance tests and binding studies were conducted basically according to the instructions by the manufacturer. Kinetic evaluation of binding data was carried using the BIAevaluation Software Version 3.2 (Biacore AB). Optimization of conditions for immobilization and binding analysis is carried out for each interaction to be studied. […]
Recombinant human RAGE was obtained from R&D Systems (cat. No. 1145-RG) as a fusion protein of the extracellular domain of RAGE, comprising a.a. […] The chimeric protein was expressed in the mouse myleoma cell line NSO as a disulfide-linked homo-dimeric protein with a calculated molecular mass of 61 kDa. […]
Recombinant S100A9, expressed as the full-length sequence of native protein in E. coli was obtained using a four-step purification protocol. […]

[2] = target: T2, S100A9 binding to immobilized human TLR4/MD-2 complex (Homo sapiens, UniProt P06702); assay: Biacore competition assay: displacement of S100A9 binding to immobilized TLR4/MD-2; settings: sigmoidal dose-response (variable slope) fit
T2 construct: made in house; host or cells: E. coli
T2 sequence (P06702 1-114): T1 sequence (P06702 1-114)
Experimental: Sensograms from top to bottom represent: S100A9 without and with 7.8125, 15.625, 31.25, 62.5, 125, 250, 500 and 1000 μM compound A as competitor. In (B), binding data is plotted as an inhibition curve. […] Arrows in (A) indicate start of the association phase (1), i.e. injection of S100A9±competitor, and dissociation phase (2), where running buffer is pumped over the surface. Injection time, flow rate and regeneration conditions were as in FIG. 1. HBS-P containing 1 mM CaCl2 and 10 μM ZnCl2 (Robinson et al. 2002) was used as running and sample buffer.
Binding analysis was performed using the “surface plasmon resonance” (SPR) technology with a Biacore 3000™ system. This technology allows analysis of an interaction between proteins and small molecules in a real-time and label-free manner. A protein or low-molecular weight compound is injected over a surface (a CM5 sensor chip) with a covalently coupled ligand and the signal produced, expressed as resonance units (RU), is directly proportional to the number and mass of the molecule interacting with the ligand on the surface. […]
(§1) Recombinant S100A9, expressed as the full-length sequence of native protein in E. coli was obtained using a four-step purification protocol. […] Buffer was changed to HBS-P using the Fast Protein Desalting Spin Columns and concentration determined in the BCA protein assay from Pierce with bovine albumin as standard. […]

human S100A9 = target: T3, human S100A9 (Homo sapiens, UniProt P06702); assay: Biacore competition assay: S100A9 binding to immobilized amino-linked Compound A; settings: sigmoidal dose-response (variable slope) fit
T3 construct: made in house; host or cells: E. coli
T3 sequence (P06702 1-114): T1 sequence (P06702 1-114)
Experimental: The anti-S100A9 mAb 43/8 ability to block the binding of human S100A9 to amino-linked Compound A was measured by BIACORE™ direct binding assay. The assay was performed by coating amino-linked Compound A on a CM5 chip using standard amine coupling. S100A9 at 100 nM was injected over immobilized Compound A in the absence or presence of mAb 43/8 for 3 min at a flow rate of 30 μl/min in sample buffer (HBS-P buffer containing 1 mM Ca^2+ and […]) (1; association phase), followed by injection of sample buffer (2; dissociation phase).
Responses at late association phase, obtained after injection of 100 nM S100A9, pre-incubated for at least 1 h at room temperature ±12.5-500 nM monoclonal anti-S100A9 antibody, over immobilized Compound A were plotted versus concentration of anti-S100A9 antibody.
Samples were injected for 3 min at 30 μl/min in HBS-P buffer over amine coupled RAGE,TLR4/MD-2 and Compound A. Binding +/− competitor was calculated as response at lateassociation phase or by fit of sensorgrams to a 1:1 Langmuir model. ICso values were calculated by fitting data to a sigmoidal dose-response (variable slope) model in Graph-Pad Prism.

immobilized RAGE = target: T4, immobilized RAGE (Homo sapiens, UniProt Q15109); assay: Binding of S100 proteins to immobilized RAGE (Biacore); settings: 200 nM protein
T4 construct: the extracellular domain of RAGE, comprising a.a; 1-344; purchased R&D Systems 1145-RG; host or cells: mouse myeloma cell line NS0
T4 sequence (Q15109 23-344): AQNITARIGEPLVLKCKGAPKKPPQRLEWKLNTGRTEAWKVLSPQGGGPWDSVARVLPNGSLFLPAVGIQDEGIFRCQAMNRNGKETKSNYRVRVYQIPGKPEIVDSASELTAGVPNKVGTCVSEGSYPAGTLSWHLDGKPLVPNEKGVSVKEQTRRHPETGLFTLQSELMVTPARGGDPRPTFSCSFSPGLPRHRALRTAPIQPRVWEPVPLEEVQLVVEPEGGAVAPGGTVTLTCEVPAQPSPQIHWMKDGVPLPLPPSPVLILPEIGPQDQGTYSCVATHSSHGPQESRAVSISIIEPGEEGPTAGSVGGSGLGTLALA
Experimental: Responses were obtained as Req values after fit of data to a 1:1 binding model or as the signal at late association phase (t˜235 s). Experimental conditions were as in FIG. 1. Signals were not corrected for mass contribution.
In vivo, S100A9 usually forms hetero-dimeric complexes with S100A8.
(§2) Binding analysis was performed using the “surface plasmon resonance” (SPR) technology with a Biacore 3000™ system. This technology allows analysis of an interaction between proteins and small molecules in a real-time and label-free manner. A protein or low-molecular weight compound is injected over a surface (a CM5 sensor chip) with a covalently coupled ligand and the signal produced, expressed as resonance units (RU), is directly proportional to the number and mass of the molecule interacting with the ligand on the surface. Immobilization, regeneration scouting, surface performance tests and binding studies were conducted basically according to the instructions by the manufacturer. Kinetic evaluation of binding data was carried using the BIAevaluation Software Version 3.2 (Biacore AB). Optimization of conditions for immobilization and binding analysis is carried out for each interaction to be studied. A biosensor analysis cycle consists of: (i) injection of S100A9 over the RAGE surface for 3 min (association phase) or (i) injection of S100A9 over the TLR4/MD-2 surfaces, in the absence or presence of 100 ng/mL LPS, for 3 min (association phase); (ii) injection of running buffer for 2.5 min (dissociation phase); (iii) injection of a 30 s pulse of 10 mM glycine-HCl, pH 2.0-2.125 (regeneration phase); and (iv) injection of running buffer for 2 min (stabilization after regeneration) at a flow rate of 30 μl/min.
Recombinant human RAGE was obtained from R&D Systems (cat. No. 1145-RG) as a fusion protein of the extracellular domain of RAGE, comprising a.a. 1-344, and the Fc region of human IgG1 via a peptide linker. The chimeric protein was expressed in the mouse myleoma cell line NSO as a disulfide-linked homo-dimeric protein with a calculated molecular mass of 61 kDa. Prior to covalent coupling to the sensor chip, buffer was changed to a standard Biacore buffer (10 mM Hepes, 0.15 M NaCl, pH 7.4, containing 0.005% v/v Surfactant P20; HBS-P) using Fast Protein Desalting Micro-Spin Columns (Pierce). RAGE was diluted in an immobilization buffer shown to give sufficient pre-concentration and then covalently coupled using the “Aim at immobilization level” function in the Biacore Wizard to obtain various coupling densities. Activity of immobilized RAGE was tested by injecting a specific anti-human RAGE monoclonal antibody over the surface. Due to extensive glycosylation of RAGE relative to that of the Fc domain and a higher mass of the latter, it was also assumed that chimeric RAGE/Fc will be coupled predominantly via the Fc domain and result in a semi-oriented coupling to the sensor chip. HBS-P, with a final concentration of 1 mM CaCl2 and 10 μM ZnCl2, was used as sample and running buffer throughout the study. For regeneration of the surface after each cycle, a pulse of 10 mM glycine-HCl, pH 2.125, was used. To determine optimal zinc concentration for binding of S100A9 protein to RAGE, the interaction was allowed to take place at a fixed calcium concentration (1 mM) and with the zinc concentration titrated from zero to ten μM.

human TLR4/MD-2 = target: T5, human TLR4/MD-2 (Homo sapiens, UniProt O00206+Q9Y6Y9); assay: Biacore direct binding of S100A9 to amine-coupled TLR4/MD-2; settings: 1:1 Langmuir binding model
T5 construct: human TLR4 (Glu 24-Lys 631), and 10× histidines; human MD-2 (Glu 17-ASN 160), and 10× histidines; human CD33 signal peptide (Met 1-Ala 16) (N); purchased R&D Systems 3146-TN/CF; host or cells: mouse myeloma cell line NS0
T5 sequence (O00206 24-631): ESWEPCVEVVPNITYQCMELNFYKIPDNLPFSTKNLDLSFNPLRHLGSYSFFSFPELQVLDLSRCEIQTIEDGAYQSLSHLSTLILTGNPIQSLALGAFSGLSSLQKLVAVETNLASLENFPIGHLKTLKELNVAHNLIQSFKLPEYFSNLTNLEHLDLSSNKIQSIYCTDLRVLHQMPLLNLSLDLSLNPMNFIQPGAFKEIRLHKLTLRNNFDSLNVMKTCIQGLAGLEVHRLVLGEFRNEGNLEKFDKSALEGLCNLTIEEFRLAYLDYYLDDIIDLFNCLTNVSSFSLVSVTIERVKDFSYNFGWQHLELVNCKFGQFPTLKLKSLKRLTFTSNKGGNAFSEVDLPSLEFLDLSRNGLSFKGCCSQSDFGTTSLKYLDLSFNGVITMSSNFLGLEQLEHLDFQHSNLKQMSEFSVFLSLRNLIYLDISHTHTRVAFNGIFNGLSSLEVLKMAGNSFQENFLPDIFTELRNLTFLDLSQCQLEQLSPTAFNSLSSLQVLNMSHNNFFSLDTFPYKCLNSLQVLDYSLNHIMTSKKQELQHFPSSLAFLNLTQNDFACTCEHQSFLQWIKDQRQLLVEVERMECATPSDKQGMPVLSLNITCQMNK
T5 sequence (Q9Y6Y9 17-160): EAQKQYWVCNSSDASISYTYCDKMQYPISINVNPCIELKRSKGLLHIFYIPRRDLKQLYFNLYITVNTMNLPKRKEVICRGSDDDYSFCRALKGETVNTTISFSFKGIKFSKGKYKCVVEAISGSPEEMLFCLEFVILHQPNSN
Experimental: The TOLL-like receptor 4 was immobilized on the sensor chip. Binding to S100A9 was detected. […] Sensorgrams from bottom to top represent injection of sample buffer in the absence of S100A9, 100 and 200 nM S100A9 after subtraction of the signal in the reference flow cell. Injection time was 3 min at a flow rate of 30 μL/min and regeneration was performed with a 30 μl pulse of 3 mM EDTA in HBS-P buffer (HBS-EP) for 60 s. Arrows indicate injection of sample (1; association phase), running buffer (2; dissociation phase) and regeneration solution (3). HBS-P containing 1 mM CaCl2 and 10 μM ZnCl2 (Robinson et al. 2002) was used as running and sample buffer. An apparent dissociation constant of […], on- and off-rates of 3.9×10^4 l/Ms and 3.5×10^−4 l/s, and maximal binding at 1.8×10^3 RU were calculated after fitting data to a 1:1 Langmuir binding model (Chi2 6.8).
as §2
Recombinant human TLR4/MD-2 was obtained from R&D Systems (cat. no. 3146-TN/CF) as a non-covalently associated protein of the respective extracellular domains. […]
as §1

An IC50 ([1]; sigmoidal dose-response (variable slope) fit) of 399 µM, an IC50 [2] of 458 µM and an IC50 (human S100A9) of 873 µM were found for `COc1ccc(C2CNC(=O)C2)cc1OC1CCCC1` (racemic) [Rolipram, (+/−)-4-(3-cyclopentyloxy-4-methoxyphenyl)-2-pyrrolidone] in this work.

In the case of “S100A1: S100 protein, putative RAGE ligand [Compound S100A1]”, the “binding to RAGE (in words)” value (immobilized RAGE) is reported as “weak or no binding”.

For “S100A8/9 hetero-dimer: hetero-dimeric complex of S100A8 and S100A9”, the “binding to RAGE (in words)” value (immobilized RAGE) was “significantly lower binding”.

With “S100A9: recombinant S100A9, full-length sequence of native protein expressed in E. coli; SEQ ID NO: 1 [Compound S100A9]” the maximal binding (human TLR4/MD-2) was 1.8×10^3 RU, the off-rate (human TLR4/MD-2) was 0.00035 L/s and the on-rate (human TLR4/MD-2) was 3.9×10^4 l/Ms. For the same molecule, the Kd (human TLR4/MD-2; read-out: apparent dissociation constant) was 0.086 µM and the “binding to RAGE relative to next group of RAGE binders (AnxII, S100A12, S100A8/9)” value (immobilized RAGE) was “more than 10 fold”.

For “S100B: S100 protein, putative RAGE ligand [Compound S100B]”, the “binding to RAGE (in words)” value (immobilized RAGE) was “weak or no binding”.

For heparan sulfate, the “IC50, displacement of S100A9 binding to RAGE” value [1] was 0.0257 µg/mL.

With heparin the “IC50, displacement of S100A9 binding to RAGE” value [1] was 0.0404 µg/mL.

B1: S100A12: S100 protein, putative RAGE ligand; purified from human granulocytes (protein)
chain: TKLEEHLEGIVNIFHQYSVRKGHFDTLSKGELKQLLTKELANTIKNIKDKAVIDEIFQGLDANQDEQVDFQEFISLVAIALKAAHYHTHKE
B1 was tested, and the “binding to RAGE (in words)” value (immobilized RAGE) was “weak or no binding”.

B2: S100P: S100 protein, putative RAGE ligand (protein, UniProt P25815 1-95, looked up)
Protein S100-P: MTELETAMGMIIDVFSRYSGSEGSTQTLTKGELKVLMEKELPGFLQSGKDKDAVDKLLKDLDANGDAQVDFSEFIVFVAAITSACHKYFEKAGLK
In the case of B2, the “binding to RAGE (in words)” value (immobilized RAGE) is reported as “weak or no binding”.
